This passage reports EC50 results from US20190284299A1 (published 2019).

In the experiment the target is T1, recombinant human Trop-2 (Sino Biological, Cat. No: 10428-H08H) (human, UniProt P09758 27-274).
T1 chain: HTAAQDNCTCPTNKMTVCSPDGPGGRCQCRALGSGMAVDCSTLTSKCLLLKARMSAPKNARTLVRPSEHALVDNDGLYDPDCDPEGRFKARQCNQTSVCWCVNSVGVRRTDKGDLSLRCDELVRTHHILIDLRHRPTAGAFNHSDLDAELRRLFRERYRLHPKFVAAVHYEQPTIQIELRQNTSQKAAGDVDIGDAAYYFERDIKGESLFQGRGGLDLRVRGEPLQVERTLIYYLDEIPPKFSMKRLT
As to the kind of experiment: ELISA.

B1: heterodimeric anti-Trop-2/anti-CD3-scFv bispecific antibody (bispecific antibody)
heavy: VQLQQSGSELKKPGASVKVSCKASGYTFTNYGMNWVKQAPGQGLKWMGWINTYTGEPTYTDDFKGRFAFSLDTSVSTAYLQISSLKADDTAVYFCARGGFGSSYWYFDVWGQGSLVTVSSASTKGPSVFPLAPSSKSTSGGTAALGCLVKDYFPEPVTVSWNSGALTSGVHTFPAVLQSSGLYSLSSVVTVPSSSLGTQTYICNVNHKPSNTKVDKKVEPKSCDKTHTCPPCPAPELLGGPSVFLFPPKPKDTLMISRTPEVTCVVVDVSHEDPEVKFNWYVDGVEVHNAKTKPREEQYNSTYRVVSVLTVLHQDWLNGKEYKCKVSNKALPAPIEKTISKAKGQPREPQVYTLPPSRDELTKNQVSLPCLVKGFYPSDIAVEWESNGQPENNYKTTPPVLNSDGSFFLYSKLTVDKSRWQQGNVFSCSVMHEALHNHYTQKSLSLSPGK
light: DIQLTQSPSSLSASVGDRVSITCKASQDVSIAVAWYQQKPGKAPKLLIYSASYRYTGVPDRFSGSGSGTDFTLTISSLQPEDFAVYYCQQHYITPLTFGAGTKVEIKRTVAAPSVFIFPPSDEQLKSGTASVVCLLNNFYPREAKVQWKVDNALQSGNSQESVTEQDSKDSTYSLSSTLTLSKADYEKHKVYACEVTHQGLSSPVTKSFNRGEC
scFv: not shown
For orientation: EC50 means the concentration at which the effect is half-maximal. As to B1, the EC50 was 0.28 nM.

B2: Anti-Trop-2 mAb (antibody, V domains shown)
VH: VQLQQSGSELKKPGASVKVSCKASGYTFTNYGMNWVKQAPGQGLKWMGWINTYTGEPTYTDDFKGRFAFSLDTSVSTAYLQISSLKADDTAVYFCARGGFGSSYWYFDVWGQGSLVTVSS
VL: DIQLTQSPSSLSASVGDRVSITCKASQDVSIAVAWYQQKPGKAPKLLIYSASYRYTGVPDRFSGSGSGTDFTLTISSLQPEDFAVYYCQQHYITPLTFGAGTKV
For the molecule B2, the EC50 was found to be 0.081 nM.
